What was measured:
CD20 on Raji cells [1] = target: T1, CD20 on Raji cells (human, UniProt P11836 1-297); experiment: cell-based or functional assay
T1 sequence (looked up): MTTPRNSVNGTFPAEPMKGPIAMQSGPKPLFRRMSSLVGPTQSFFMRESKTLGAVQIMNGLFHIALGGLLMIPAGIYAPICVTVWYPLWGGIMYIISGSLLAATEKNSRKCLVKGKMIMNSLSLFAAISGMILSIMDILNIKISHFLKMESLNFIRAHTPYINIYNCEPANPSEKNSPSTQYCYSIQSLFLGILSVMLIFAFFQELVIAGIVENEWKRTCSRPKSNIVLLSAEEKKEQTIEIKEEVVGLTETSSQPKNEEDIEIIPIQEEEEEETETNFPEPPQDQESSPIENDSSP

CD20 on Raji cells [2] = target: T1, CD20 on Raji cells; experiment: flow cytometry on CD20-positive Raji cells
[3] = target: T2, CD19 on tumor cells (Raji, Raji-Luc, NALM6, Reh) (human, UniProt P15391 20-556); experiment: cell-based or functional assay
T2 sequence (looked up): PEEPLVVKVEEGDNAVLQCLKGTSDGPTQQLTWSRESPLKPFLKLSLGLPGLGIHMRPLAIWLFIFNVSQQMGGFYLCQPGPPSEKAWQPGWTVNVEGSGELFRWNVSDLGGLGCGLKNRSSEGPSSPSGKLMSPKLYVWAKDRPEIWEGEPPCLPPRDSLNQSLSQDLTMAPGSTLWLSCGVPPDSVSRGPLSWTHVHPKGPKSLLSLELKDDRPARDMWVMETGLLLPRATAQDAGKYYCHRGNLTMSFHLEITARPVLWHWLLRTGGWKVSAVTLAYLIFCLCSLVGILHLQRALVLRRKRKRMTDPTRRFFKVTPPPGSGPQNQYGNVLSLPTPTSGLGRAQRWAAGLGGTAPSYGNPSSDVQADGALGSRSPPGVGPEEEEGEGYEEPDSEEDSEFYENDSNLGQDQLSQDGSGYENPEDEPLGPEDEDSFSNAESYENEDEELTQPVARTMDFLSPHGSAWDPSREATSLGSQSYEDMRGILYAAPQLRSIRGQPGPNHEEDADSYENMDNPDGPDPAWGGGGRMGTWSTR

[4] = target: T2, CD19 on tumor cells (Raji, Raji-Luc, …); experiment: cell-based or functional assay; remark: listed apart in the source
[5] = target: T2, CD19 on tumor cells (Raji, Raji-Luc, …); experiment: cell-based or functional assay; remark: listed apart in the source
[6] = target: T2, CD19 on tumor cells (Raji, Raji-Luc, …); experiment: cell-based or functional assay; remark: listed apart in the source
[7] = target: T2, CD19 on tumor cells (Raji, Raji-Luc, …); experiment: flow cytometry on CD19-positive Raji cells
[8] = target: T3, CD3 on cynomolgus monkey T cells (CIK cells, primary T cells) (cynomolgus monkey, UniProt Q95LI5 22-198); experiment: flow cytometry on cynomolgus monkey CIK/T cells
T3 construct: whole, on cells; also called cynomolgus monkey CIK cell membrane CD3

[9] = target: T2, CD19 on tumor cells (Raji, Raji-Luc, …); experiment: FACS on CD19-positive Raji cells, AF647 goat anti-human IgG [left panel]
[10] = target: T3, CD3 on cynomolgus monkey T cells (CIK …); experiment: flow cytometry on cynomolgus monkey primary T cells

T3 sequence (Q95LI5 22-198): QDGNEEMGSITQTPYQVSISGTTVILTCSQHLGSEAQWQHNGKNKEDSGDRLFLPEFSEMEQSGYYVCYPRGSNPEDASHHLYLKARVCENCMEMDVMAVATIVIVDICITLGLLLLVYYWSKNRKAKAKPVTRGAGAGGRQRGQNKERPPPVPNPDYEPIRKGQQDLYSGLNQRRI

B1: Bispecific antibody AB2K (Anti-CD20×CD3, scFv1-scFv2-Fc) (bispecific antibody)
chain: QVQLQQPGAELVKPGASVKMSCKASGYTFTSYNMHWVKQTPGRGLEWIGAIYPGNGDTSYNQKFKGKATLTADKSSSTAYMQLSSLTSEDSAVYYCARSTYYGGDWYFNVWGAGTTVTVSAGGGGSGGGGSGGGGSQIVLSQSPAILSASPGEKVTMTCRASSSVSYIHWFQQKPGSSPKPWIYATSNLASGVPVRFSGSGSGTSYSLTISRVEAEDAATYYCQQWTSNPPTFGGGTKLEIKGGGGGGSGGGGSGGGGSSSSSKAPPPSEVQLLESGGGLVQPGGSLKLSCAASGFTFNTYAMNWVRQAPGKGLEWVARIRSKYNNYATYYADSVKDRFTISRDDSKNTAYLQMNNLKTEDTAVYYCVRHGNFGNSYVSWFAYWGQGTLVTVSSGGGGSGGGGSGGGGSELVVTQEPSLTVSPGGTVTLTCRSSTGAVTTSNYANWVQQKPGQAPRGLIGGTNKRAPGTPARFSGSLLGGKAALTLSGVQPEDEAEYYCALWYSNLWVFGGGTKLTVLDKTHTCPPCPAPEAAGGPSVFLFPPKPKDQLMISRTPEVTCVVVDVSHEDPEVKFNWYVDGVEVHNAKTKPREEQYASTYRVVSVLTVLHQDWLNGKEYKCKVSNKALPASIEKTISKAKGQPREPQVYTLPPSRDELTKNQVSLTCLVKGFYPSDIAVEWESNGQPENNYKTTPPVLDSDGSFFLYSKLTVDKSRWQQGNVFSCSVLHEALHNHYTQKSLSLSPG
EC50 of CIK-mediated killing of Raji-luc cells (luciferase) (CD20 on Raji cells [1]): 0.0428 µg/mL
EC50 of activation of Jurkat NFATRE Luc reporter cells in the presence of CD20-positive Raji cells (CD20 on Raji cells [1]): 0.201 µg/mL
EC50 (CD20 on Raji cells [2]): ~70 nM

B2: Bispecific antibody AB1K2 (Anti-CD19×CD3, scFv1-scFv2-Fc) (bispecific antibody)
chain: QVQLQESGPGLVKPSQTLSLTCTVSGGSISTSGMGVGWIRQHPGKGLEWIGHIWWDDDKRYNPALKSRVTISVDTSKNQFSLKLSSVTAADTAVYYCARMELWSYYFDYWGQGTLVTVSSGGGGSGGGGSGGGGSEIVLTQSPATLSLSPGERATLSCSASSSVSYMHWYQQKPGQAPRLLIYDTSKLASGIPARFSGSGSGTDFTLTISSLEPEDVAVYYCFQGSVYPFTFGQGTKLEIKGGGGGGSGGGGSGGGGSSSSSKAPPPSEVQLLESGGGLVQPGGSLKLSCAASGFTFNTYAMNWVRQAPGKGLEWVARIRSKYNNYATYYADSVKDRFTISRDDSKNTAYLQMNNLKTEDTAVYYCVRHGNFGNSYVSWFAYWGQGTLVTVSSGGGGSGGGGSGGGGSELVVTQEPSLTVSPGGTVTLTCRSSTGAVTTSNYANWVQQKPGQAPRGLIGGTNKRAPGTPARFSGSLLGGKAALTLSGVQPEDEAEYYCALWYSNLWVFGGGTKLTVLDKTHTCPPCPAPEAAGGPSVFLFPPKPKDQLMISRTPEVTCVVVDVSHEDPEVKFNWYVDGVEVHNAKTKPREEQYASTYRVVSVLTVLHQDWLNGKEYKCKVSNKALPASIEKTISKAKGQPREPQVYTLPPSRDELTKNQVSLTCLVKGFYPSDIAVEWESNGQPENNYKTTPPVLDSDGSFFLYSKLTVDKSRWQQGNVFSCSVLHEALHNHYTQKSLSLSPG
EC50 of activation of Jurkat T cells with NFAT RE reporter in the presence of Raji target cells [3]: 1.08 nM
EC50 of CIK-mediated killing of Raji-LUC cells [4]: 0.000699 nM
EC50 of CIK-mediated killing of Raji-LUC cells, second row [4]: 0.000202 nM
EC50 of PBMC-mediated killing of Raji-LUC cells [5]: 0.00123 nM
EC50 of PBMC-mediated killing of Raji-LUC cells, second row [5]: 0.00125 nM
EC50 of CIK-mediated killing of Reh cells [6]: 0.00171 nM
EC50 [7]: 1.39 nM
EC50 [8]: ~5.5 nM
EC50 (read off the curve) [9]: ~1 nM

B3: Bispecific antibody AB11K (Anti-Mucin1×CD3, scFv1-scFv2-Fc) (bispecific antibody)
chain: EVQLVESGGGLVQPGGSMRLSCVASGFPFSNYWMNWVRQAPGKGLEWVGEIRLKSNNYTTHYAESVKGRFTISRDDSKNSLYLQMNSLKTEDTAVYYCTRHYYFDYWGQGTLVTVSSGGGGSGGGGSGGGGSDIVMTQSPLSNPVTPGEPASISCRSSKSLLHSNGITYFFWYLQKPGQSPQLLIYQMSNLASGVPDRFSGSGSGTDFTLRISRVEAEDVGVYYCAQNLELPPTFGQGTKVEIKGGGGGGSGGGGSGGGGSSSSSKAPPPSEVQLLESGGGLVQPGGSLKLSCAASGFTFNTYAMNWVRQAPGKGLEWVARIRSKYNNYATYYADSVKDRFTISRDDSKNTAYLQMNNLKTEDTAVYYCVRHGNFGNSYVSWFAYWGQGTLVTVSSGGGGSGGGGSGGGGSELVVTQEPSLTVSPGGTVTLTCRSSTGAVTTSNYANWVQQKPGQAPRGLIGGTNKRAPGTPARFSGSLLGGKAALTLSGVQPEDEAEYYCALWYSNLWVFGGGTKLTVLDKTHTCPPCPAPEAAGGPSVFLFPPKPKDQLMISRTPEVTCVVVDVSHEDPEVKFNWYVDGVEVHNAKTKPREEQYASTYRVVSVLTVLHQDWLNGKEYKCKVSNKALPASIEKTISKAKGQPREPQVYTLPPSRDELTKNQVSLTCLVKGFYPSDIAVEWESNGQPENNYKTTPPVLDSDGSFFLYSKLTVDKSRWQQGNVFSCSVLHEALHNHYTQKSLSLSPG
EC50 [10]: 10 nM

Reference: US20210371526A1 (AMPSOURCE BIOPHARMA SHANGHAI, published 2021)
